# Bridge positions count the residues as written; N and C are the ends. Square brackets hold non-standard residues; d marks the D form. Primed or numbered codes have the meaning given here. Lys(N3) = [N-]=[N+]=NCCCC[C@H](N)C(=O)O; NMeQ = CN[C@@H](CCC(N)=O)C(=O)O; R8 = C=CCCCCCC[C@@](C)(N)C(=O)O; dCba = N[C@H](CC1CCC1)C(=O)O; S5 = C=CCCC[C@](C)(N)C(=O)O; NMeA = CN[C@@H](C)C(=O)O; Cba′ = not defined here; Aib = CC(C)(N)C(=O)O; βAla = NCCC(=O)O
# Target: T1, human Mdm2 (1–125) (human)
# T1 construct: Mdm2, human, residues 1-125; the stretch after the TEV site ENLYFQG of the fusion protein; No cleavage of the tags is described, so it is open whether the fusion or cleaved Mdm2 stood in the FP and ITC assays; also called purified recombinant human Mdm2 protein (amino acids 1–125); source: E. coli BL21 (DE3) Rosetta T1R, purified (Ni-NTA, gel filtration)
# Test: fluorescence polarisation; competition: unlabeled peptide titrated against the complex of 250 nM Mdm2 (1–125) and 50 nM FAM-labeled 12/1 peptide; apparent Kd from the tracer's Kd of […] nM; PBS pH 7.4, 0.1% Tween 20; triplicate
# Conditions: both partners purified
# T1 sequence (chain, as listed by the source): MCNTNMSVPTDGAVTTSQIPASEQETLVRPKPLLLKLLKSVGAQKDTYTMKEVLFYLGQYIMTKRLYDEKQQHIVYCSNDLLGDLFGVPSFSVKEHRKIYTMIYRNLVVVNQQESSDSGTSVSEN
row,Binder,Kd [nM]
1,Ac-LTF[R8]EYWQL[Cba′][S5]SAA-NH2 (staple 4-11; reading uncertain) [MP-292],18.6
2,Ac-LT[dF][R8]EYWQL[Cba′][S5]SAA-NH2 (staple 4-11; reading uncertain) [MP-292 F3(D-Phe)],6480
3,Ac-LTF[R8][dE]YWQL[Cba′][S5]SAA-NH2 (staple 4-11; reading uncertain) [MP-292 E5(D-Glu)],32
4,Ac-LTF[R8]EAWQL[Cba′][S5]SAA-NH2 (staple 4-11; reading uncertain) [MP-292 Y6A],38.9
5,Ac-LTF[R8]EYAQL[Cba′][S5]SAA-NH2 (staple 4-11; reading uncertain) [MP-292 W7A],5090
6,Ac-LTF[R8]EYWQL[Cba′][S5]SA[dA]-NH2 (staple 4-11; reading uncertain) [MP-292 A14(D-Ala)],18
7,Ac-LTF[R8]EYWQL[Cba′][S5][dS]AA-NH2 (staple 4-11; reading uncertain) [MP-292 S12(D-Ser)],8.6
8,Ac-[dL]TF[Aib]EYWQL[Cba′][Aib]SAA-NH2 (reading uncertain) [Linear L1(D-Leu)],277
9,Ac-LTF[R8]EYWQL[dCba][S5]SAA-NH2 (staple 4-11) [MP-292 Cba10(D-Cba)],1650
10,Ac-L[dT]F[R8]EYWQL[Cba′][S5]SAA-NH2 (staple 4-11; reading uncertain) [MP-292 T2(D-Thr)],136
11,Ac-[dL]TF[R8]EYWQL[Cba′][S5]SAA-NH2 (staple 4-11; reading uncertain) [MP-292 L1(D-Leu)],31
12,Ac-LTF[R8]EYWQ[dL][Cba′][S5]SAA-NH2 (staple 4-11; reading uncertain) [MP-292 L9(D-Leu)],30
13,Ac-LTF[Aib]EYWQL[Cba′][Aib]SAA-NH2 (reading uncertain) [Linear Parent (MP-189)],43.1
14,Ac-LTF[R8]EYWQA[Cba′][S5]SAA-NH2 (staple 4-11; reading uncertain) [MP-292 L9A],12
15,Ac-LTF[R8]EY[dW]QL[Cba′][S5]SAA-NH2 (staple 4-11; reading uncertain) [W6(D-Trp) (MP-384)],30
16,Ac-LTF[Aib]EYWQ[dL][Cba′][Aib]SAA-NH2 (reading uncertain) [Linear L9(D-Leu)],88
17,Ac-LTF[R8]EYWQL[Cba′][S5]S[dA]A-NH2 (staple 4-11; reading uncertain) [MP-292 A13(D-Ala)],17
18,Ac-LTF[R8]EYWQL[Cba′][S5]AAA-NH2 (staple 4-11; reading uncertain) [MP-292 S12A],20.4
19,Ac-LTF[R8]EYWAL[Cba′][S5]SAA-NH2 (staple 4-11; reading uncertain) [MP-292 Q8A],26.5
20,Ac-LTF[Aib][dE]YWQL[Cba′][Aib]SAA-NH2 (reading uncertain) [Linear E5(D-Glu)],135
21,Ac-LTF[R8]EYW[dQ]L[Cba′][S5]SAA-NH2 (staple 4-11; reading uncertain) [MP-292 Q8(D-Gln)],22
22,Ac-LTF[R8]E[dY]WQL[Cba′][S5]SAA-NH2 (staple 4-11; reading uncertain) [MP-292 Y6 (D-Tyr)],286

# Target: T1, human Mdm2 (1–125)
# Test: as above
# Conditions: both partners purified
# Remark: another data set of the same source
row,Binder,Kd [nM]
1,Ac-[Lys(N3)][βAla]LTF[R8]EYW[NMeA]Q[Cba′][S5]SAA-NH2 (staple 6-13; reading uncertain) [MP-081 A8(N-methyl L-Ala)],671
2,Ac-[Lys(N3)][βAla]PTF[R8]EYWAQ[Cba′][S5]SAA-NH2 (staple 6-13; reading uncertain) [MP-081 L1P],21.9
3,Ac-[Lys(N3)][βAla]LTF[R8]GYWAQ[Cba′][S5]SAA-NH2 (staple 6-13; reading uncertain) [MP-081 E5G],61.8
4,Ac-[Lys(N3)][βAla]GTF[R8]EYWAQ[Cba′][S5]SAA-NH2 (staple 6-13; reading uncertain) [MP-081 L1G],22.1
5,Ac-[Lys(N3)][βAla]LTF[R8]EYWAP[Cba′][S5]SAA-NH2 (staple 6-13; reading uncertain) [MP-081 Q9P],77.1
6,Ac-[Lys(N3)][βAla]LTF[R8]EYWA[NMeQ][Cba′][S5]SAA-NH2 (staple 6-13; reading uncertain) [MP-081 Q9(N-methyl L-Gln)],211
7,Ac-[Lys(N3)][βAla]LTF[R8]EYWAQ[Cba′][S5]SAA-NH2 (staple 6-13; reading uncertain) [MP-081],19
8,Ac-[Lys(N3)][βAla]LTF[R8]EYWAQ[Cba′][S5]S[NMeA]A-NH2 (staple 6-13; reading uncertain) [MP-081 A13(N-methyl L-Ala)],10
9,Ac-[Lys(N3)][βAla]LTF[R8]EYWAG[Cba′][S5]SAA-NH2 (staple 6-13; reading uncertain) [MP-081 Q9G],42

# Target: T1, human Mdm2 (1–125)
# Test: cell-based or functional assay
# Conditions: not given
Binder,"EC50, p53 responsive β-lactamase reporter in HCT116 cells, 2% serum (data not shown) [µM]","EC50, p53 responsive β-lactamase reporter in HCT116 cells, 10% serum (data not shown) [µM]"
Ac-LTF[R8]EYWQL[Cba′][S5]SAA-NH2 (staple 4-11; reading uncertain) [MP-292],0.7,4.2

# Target: T1, human Mdm2 (1–125)
# Test: ITC; 100–200 µM peptide titrated into 20 µM Mdm2 (1–125), 40 injections of 1 µL (reverse titration for insoluble peptides); 1× PBS pH 7.2, 3% DMSO, 0.001% Tween-20; duplicates
# Conditions: both partners purified
row,Binder,stoichiometry N
1,Ac-LTF[R8]EYWQL[Cba′][S5]SAA-NH2 (staple 4-11; reading uncertain) [MP-292],1

# Target: T1, human Mdm2 (1–125)
# Test: cell-based or functional assay
# Conditions: not given
# Remark: another data set of the same source
row,Binder,"EC50, p53 responsive β-lactamase reporter in HCT116 cells (column Cellular) [µM]"
1,Ac-LTF[R8]EYWQL[Cba′][S5]SAA-NH2 (staple 4-11; reading uncertain) [MP-292],0.54
2,Ac-LTF[R8]EYAQL[Cba′][S5]SAA-NH2 (staple 4-11; reading uncertain) [MP-292 W7A],8.8
